Experimental data published in PMC11299580, “Discovery of novel disease-causing mutation in SSBP1 and its correction using adenine base editor to improve mitochondrial function” (Molecular Therapy. Nucleic Acids, 2023).
pKd: −log10 of the molar value.

Target: T1, SSBP1 Arg91Gln R91Q (Homo sapiens) (UniProt Q04837)
T1 sequence: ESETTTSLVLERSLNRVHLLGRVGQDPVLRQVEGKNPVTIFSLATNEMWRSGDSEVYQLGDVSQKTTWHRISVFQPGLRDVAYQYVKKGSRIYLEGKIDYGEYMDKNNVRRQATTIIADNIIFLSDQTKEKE
Assay: EMSA
Settings: 50 mM Tris pH 7.5, 150 mM NaCl, 10% glycerol, 30 min at room temperature; 2% agarose gel in 1x TBE

Q: With “GGACTATTTATTCAATATATTTAAGAACTAATTCCAGCTGAGCGCCGG [EMSA ssDNA probe]” as the sequence, how does the pKd read?
A: The pKd was 7.69.
